In patent US9993566B2, “SEZ6 modulators and methods of use” (AbbVie Stemcentrx LLC, priority 2013, dated 2018):

Tests used:
LU64, a SCLC tumor = experiment: ADC cytotoxicity in NTX tumor cells in vitro; format: cell-based, human; conditions: compared to control msIgG1
Procedure: (§1) NTX tumors were dissociated into a single cell suspension and plated on Primaria™ plates (BD Biosciences) in growth factor supplemented serum free media as is known in the art. After culturing the cells for one day at 37° C./5% CO2/5% O2, they were treated with a control (IgG1, IgG2a or IgG2b) or a murine SEZ6 modulator and Fab-saporin as described in Example 14. After seven days, the modulator-mediated saporin cytotoxicity was assessed by quantifying the remaining number of live cells using Cell Titer Glo.
(§2) Mouse lineage-depleted NTX tumor cells were exposed to anti-SEZ6 ADCs or a mouse isotype control (msIgG1) using the same method as described in Example 15, except that Fab-saporin was not added.

[1] = system: OV26, a NET ovarian tumor; experiment: ADC cytotoxicity in NTX tumor cells in vitro; format: cell-based, human; conditions: compared to control msIgG1
Procedure: as §1, §2

cynomolgus SEZ6 = experiment: Flow cytometry cross reactivity, yeast displaying extracellular domain of cynomolgus SEZ6; format: binding; conditions: 5 μg/mL antibody
Procedure: (§3) In this regard flow cytometry was performed using a FACSCanto II as per the manufacturer's instructions in order to confirm that selected SC17 antibody modulators can immunospecifically associate with human SEZ6 and to determine whether the same modulators cross-react with cynomolgus, rat and/or murine SEZ6 in addition to SEZ6L and SEZ6L2. More particularly modulators were tested for cross reactivity to murine SEZ6 and rat SEZ6 by flow cytometry against Neuro2a (ATCC Cat # CCL131), and RIN-m5F (ATCC cat # CRL-11605) cell lines which express mouse SEZ6 and rat SEZ6, respectively. For examining cross reactivity to cynomolgus SEZ6, yeast displaying the extracellular domain of cynomolgus SEZ6 (Boder et al, 1997) were used for flow cytometry analysis.
(§4) Briefly 1×10^5 cells per well of Neuro2a, RIN-5mF, or yeast displaying cynomolgus SEZ6 cells were incubated for 30 minutes with 50 μL PBS (2% FCS) buffer with 5 μg/mL antibody. Cells were washed twice with the same buffer and then incubated with 50 μL per sample DyLight 649 labeled goat-anti-mouse IgG, Fc fragment specific secondary diluted 1:200 in PBS buffer. After incubating for 15 minutes cells were washed twice with the PBS buffer and re-suspended in the same with DAPI for flow cytometry analysis of Neuro2a and Rin-m5F or buffer without DAPI for flow cytometric analysis of yeast cells with cSEZ6.

rat SEZ6 = experiment: Flow cytometry cross reactivity, RIN-m5F cells; format: binding; conditions: 5 μg/mL antibody
Procedure: as §3, §4

SEZ6 ECD = target: T1, SEZ6 ECD (Homo sapiens, UniProt Q53EL9); experiment: Fine epitope mapping (phage display peptide library or yeast-displayed SEZ6 ECD mutants); format: binding; conditions: epitope conformational (discontinuous) or linear
T1 construct: SEZ6 extracellular domain (amino acids 1-904); expressed in transfected cells; host or cells: yeast (surface display, Cochran et al. protocol)
Procedure: Epitopes were classified either as conformational (i.e. discontinuous) or linear. Yeast displaying the SEZ6 ECD construct was heat treated for 30 minutes at 80° C. in order to denature the antigen, washed twice in ice-cold PBSA and then subjected to the same staining protocol and flow cytometry analysis as described above. Antibodies that bound to both the denatured and native yeast were classified as binding to a linear epitope, whereas antibodies that bound native yeast but not denatured yeast were classified as conformationally specific.
Fine epitope mapping was further performed on selected antibodies to determine the specific amino acids to which they bound. Antibodies that bound to a linear epitope were mapped using the Ph.D.-12 phage display peptide library kit (New England Biolabs E8110S). The antibody selected for epitope mapping was coated onto a Nunc MaxiSorp tube (Nunc) at 50 μg/mL in 3 mL 0.1 M sodium bicarbonate solution, pH 8 and incubated overnight. The tube was blocked with 3% BSA solution in bicarbonate solution. Then, 10^11 input phage in PBS+0.1% Tween-20 was allowed to bind, followed by ten consecutive washes with 0.1% Tween-20 to wash away non-binding phage. Remaining phage were eluted with 1 mL 0.2 M glycine for 10 minutes at room temperature with gentle agitation, followed by neutralization with 150 μL 1 M Tris-HCl pH 9. Eluted phage were amplified and panned again with 10^11 input phage, using 0.5% Tween-20 during the wash steps to increase selection stringency. DNA from 24 plaques of the eluted phage from the second round was isolated using the Qiaprep M13 Spin kit (Qiagen) and sequenced. Binding of clonal phage was confirmed using an ELISA assay, where the mapped antibody or a control antibody was coated onto an ELISA plate, blocked, and exposed to each clone phage. Phage binding was detected using horseradish peroxidase conjugated anti-M13 antibody (GE Healthcare), and the 1-Step Turbo TMB ELISA solution (Pierce). Phage peptide sequences from specifically binding phage were aligned using Vector NTI (Life Technologies) against the antigen ECD peptide sequence to determine the epitope of binding.
Selected antibodies that bound to a discontinuous epitope were mapped using the technique described by Chao et al. (2007). Libraries of SEZ6 ECD mutants were generated with error prone PCR using nucleotide analogues 8-oxo-2′deoxyguanosine-5′-triphosphate and 2′-deoxy-p-nucleoside-5′triphosphate (both from TriLink Bio) for a target mutagenesis rate of one amino acid mutation per clone. These were transformed into a yeast display format. Using the technique described above for domain-level mapping, the library was stained for c-myc and antibody binding at 50 nM. […] These clones were re-grown, and subjected to another round of FACS sorting for loss of binding to the target antibody. Using the Zymoprep Yeast Plasmid Miniprep kit (Zymo Research), individual ECD clones were isolated and sequenced. Where necessary, mutations were reformatted as single-mutant ECD clones using the Quikchange site directed mutagenesis kit (Agilent).
Individual ECD clones were next screened to determine whether loss of binding was due to a mutation in the epitope, or a mutation that caused misfolding. Mutations that involved cysteine, proline, and stop codons were automatically discarded due to the high likelihood of a misfolding mutation. Remaining ECD clones were then screened for binding to a non-competing, conformationally specific antibody. ECD clones that lost binding to non-competing, conformationally specific antibodies were concluded to contain misfolding mutations, whereas ECD clones that retained equivalent binding as wild type SEZ6 ECD were concluded to be properly folded. Mutations in the ECD clones in the latter group were concluded to be in the epitope. […]

LU100, a SCLC tumor = experiment: Fab-saporin cytotoxicity in NTX tumor cells; format: cell-based, human; conditions: 50 and 500 pM antibody with Fab-saporin, seven days
Procedure: To corroborate the results of Example 14 and determine whether SEZ6 modulators can mediate toxin internalization and cell killing of human tumor cells (as opposed to engineered cells), mouse lineage-depleted NTX cells were plated and subsequently exposed to anti-SEZ6 antibodies and Fab-saporin.
as §1

mouse SEZ6 = target: T2, mouse SEZ6 (Mus musculus, UniProt Q7TSK2); experiment: Flow cytometry cross reactivity, Neuro2a cells; format: binding; conditions: 5 μg/mL antibody
T2 construct: Neuro2a (ATCC Cat # CCL131), and RIN-m5F (ATCC cat # CRL-11605) cell lines which express mouse SEZ6 and rat SEZ6; host or cells: Neuro2a
Procedure: as §3, §4

SEZ6L2 = target: T3, SEZ6L2 (Homo sapiens, UniProt Q6UXD5, INS830AYEELLDNRKLEV); experiment: ELISA cross reactivity to family member SEZ6L2; format: binding; parameters: key to binds SEZ6 family member SEZ6L2 (dagger): *: antibodies that bind SEZ6 family members SEZ6L and SEZ6L2 are designated with an asterisk and/or a dagger, respectively; †: antibodies that bind SEZ6 family members SEZ6L and SEZ6L2 are designated with an asterisk and/or a dagger, respectively
T3 construct: IgK signal peptide (N, cleaved yes); made in house; host or cells: HEK-293T or CHO-S
Procedure: To determine cross reactivity to family member proteins, SEZ6L and SEZ6L2, an ELISA-based assay was used. Plates were coated with SEZ6, SEZ6L, or SEZ6L2 proteins at 0.2 μg/mL in PBS overnight. After washing with PBS containing 0.05% (v/v) Tween 20 (PBST), the wells were blocked with 2% (w/v) BSA in PBS (PBSA), 100 μL/well for 1 hour at room temperature. Antibody was then added at 1 μg/mL in 100 μL PBSA for 1 hour at room temperature. After washing with PBST, 100 μL/well HRP-labeled goat anti-mouse IgG diluted 1:2,000 in PBSA for 1 hour at room temperature. The plates were washed and 100 μL/well of the TMB substrate solution (Thermo Scientific 34028) was added for 15 minutes at room temperature. After developing, an equal volume of 2M H2SO4 was added to stop substrate development and analyzed by spectrophotometer at OD 450. […] As discussed above, such pan-SEZ6 antibodies are compatible with the teachings herein and may be used in conjunction with the disclosed methods.

rat SEZ6, sequence (as listed by the source): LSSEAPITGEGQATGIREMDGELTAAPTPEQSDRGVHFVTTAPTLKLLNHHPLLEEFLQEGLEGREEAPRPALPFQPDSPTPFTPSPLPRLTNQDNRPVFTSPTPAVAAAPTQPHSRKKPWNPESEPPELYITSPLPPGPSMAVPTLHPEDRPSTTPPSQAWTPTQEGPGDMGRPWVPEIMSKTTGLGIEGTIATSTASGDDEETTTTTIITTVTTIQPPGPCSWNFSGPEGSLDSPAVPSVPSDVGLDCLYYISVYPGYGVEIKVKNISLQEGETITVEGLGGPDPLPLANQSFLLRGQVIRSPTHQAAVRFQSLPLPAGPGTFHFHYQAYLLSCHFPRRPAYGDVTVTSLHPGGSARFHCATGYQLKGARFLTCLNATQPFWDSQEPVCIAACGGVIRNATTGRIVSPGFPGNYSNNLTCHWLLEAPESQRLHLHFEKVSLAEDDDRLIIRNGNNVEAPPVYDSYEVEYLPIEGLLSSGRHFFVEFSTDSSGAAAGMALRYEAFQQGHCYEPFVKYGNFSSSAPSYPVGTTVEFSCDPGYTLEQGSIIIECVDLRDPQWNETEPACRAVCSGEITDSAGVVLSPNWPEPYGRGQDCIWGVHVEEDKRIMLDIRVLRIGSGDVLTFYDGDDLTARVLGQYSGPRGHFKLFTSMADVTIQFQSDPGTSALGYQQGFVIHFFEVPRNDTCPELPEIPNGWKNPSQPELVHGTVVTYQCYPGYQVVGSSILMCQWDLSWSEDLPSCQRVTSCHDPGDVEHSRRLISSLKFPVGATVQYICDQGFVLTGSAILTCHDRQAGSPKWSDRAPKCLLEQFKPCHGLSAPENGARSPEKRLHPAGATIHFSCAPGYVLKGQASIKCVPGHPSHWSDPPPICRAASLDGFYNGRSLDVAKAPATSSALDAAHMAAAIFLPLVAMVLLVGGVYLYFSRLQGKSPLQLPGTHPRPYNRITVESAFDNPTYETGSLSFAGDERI
T3 sequence (Q6UXD5 with tags, fused parts or gaps with the stated changes): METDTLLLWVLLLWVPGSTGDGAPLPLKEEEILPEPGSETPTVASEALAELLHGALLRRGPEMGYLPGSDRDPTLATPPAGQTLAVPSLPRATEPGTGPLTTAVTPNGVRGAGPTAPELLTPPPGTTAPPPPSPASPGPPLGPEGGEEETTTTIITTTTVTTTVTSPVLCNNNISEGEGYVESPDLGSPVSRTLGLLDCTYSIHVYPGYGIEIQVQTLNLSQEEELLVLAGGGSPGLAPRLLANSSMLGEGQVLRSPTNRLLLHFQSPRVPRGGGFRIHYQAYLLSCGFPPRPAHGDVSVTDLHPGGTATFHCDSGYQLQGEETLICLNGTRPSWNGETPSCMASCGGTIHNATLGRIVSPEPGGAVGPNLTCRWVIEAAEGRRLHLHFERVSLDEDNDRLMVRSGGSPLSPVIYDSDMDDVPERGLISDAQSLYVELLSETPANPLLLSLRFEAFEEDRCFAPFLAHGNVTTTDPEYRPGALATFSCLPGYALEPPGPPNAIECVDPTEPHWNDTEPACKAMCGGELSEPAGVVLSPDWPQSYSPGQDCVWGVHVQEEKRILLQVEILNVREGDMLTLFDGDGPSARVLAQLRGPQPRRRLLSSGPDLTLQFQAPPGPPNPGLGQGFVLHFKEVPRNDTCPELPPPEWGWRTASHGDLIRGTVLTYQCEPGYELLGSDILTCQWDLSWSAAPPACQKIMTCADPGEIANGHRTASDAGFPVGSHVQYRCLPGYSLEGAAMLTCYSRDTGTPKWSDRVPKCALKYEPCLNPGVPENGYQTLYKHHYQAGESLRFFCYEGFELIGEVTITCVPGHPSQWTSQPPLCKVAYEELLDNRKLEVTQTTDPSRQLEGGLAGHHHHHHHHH
T2 sequence (Q7TSK2 20-991): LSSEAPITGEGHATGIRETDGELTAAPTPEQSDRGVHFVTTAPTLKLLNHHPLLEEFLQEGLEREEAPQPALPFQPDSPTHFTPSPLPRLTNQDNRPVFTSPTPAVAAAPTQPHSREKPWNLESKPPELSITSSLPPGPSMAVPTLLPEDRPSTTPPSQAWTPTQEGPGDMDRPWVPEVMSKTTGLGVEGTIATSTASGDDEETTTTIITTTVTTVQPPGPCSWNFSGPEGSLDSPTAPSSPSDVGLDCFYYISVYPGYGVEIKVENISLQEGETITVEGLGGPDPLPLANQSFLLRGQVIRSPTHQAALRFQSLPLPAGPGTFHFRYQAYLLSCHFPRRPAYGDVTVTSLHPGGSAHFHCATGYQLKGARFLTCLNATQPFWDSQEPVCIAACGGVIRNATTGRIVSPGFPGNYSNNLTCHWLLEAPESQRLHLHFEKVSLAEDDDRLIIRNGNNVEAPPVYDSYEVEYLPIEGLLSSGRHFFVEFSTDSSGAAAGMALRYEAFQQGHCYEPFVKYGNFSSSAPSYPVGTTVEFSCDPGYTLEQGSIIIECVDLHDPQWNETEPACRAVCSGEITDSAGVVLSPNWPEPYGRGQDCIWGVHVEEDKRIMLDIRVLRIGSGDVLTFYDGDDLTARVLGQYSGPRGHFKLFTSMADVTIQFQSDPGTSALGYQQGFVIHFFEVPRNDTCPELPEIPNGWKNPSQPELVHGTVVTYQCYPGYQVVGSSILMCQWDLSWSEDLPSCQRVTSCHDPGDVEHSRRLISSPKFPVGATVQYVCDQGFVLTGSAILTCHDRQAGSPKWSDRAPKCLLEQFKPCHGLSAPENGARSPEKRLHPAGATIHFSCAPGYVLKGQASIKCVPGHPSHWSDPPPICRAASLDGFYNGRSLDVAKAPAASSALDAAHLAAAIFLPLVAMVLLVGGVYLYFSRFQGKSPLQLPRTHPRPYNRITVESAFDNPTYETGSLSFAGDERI
T1 sequence (Q53EL9 20-923): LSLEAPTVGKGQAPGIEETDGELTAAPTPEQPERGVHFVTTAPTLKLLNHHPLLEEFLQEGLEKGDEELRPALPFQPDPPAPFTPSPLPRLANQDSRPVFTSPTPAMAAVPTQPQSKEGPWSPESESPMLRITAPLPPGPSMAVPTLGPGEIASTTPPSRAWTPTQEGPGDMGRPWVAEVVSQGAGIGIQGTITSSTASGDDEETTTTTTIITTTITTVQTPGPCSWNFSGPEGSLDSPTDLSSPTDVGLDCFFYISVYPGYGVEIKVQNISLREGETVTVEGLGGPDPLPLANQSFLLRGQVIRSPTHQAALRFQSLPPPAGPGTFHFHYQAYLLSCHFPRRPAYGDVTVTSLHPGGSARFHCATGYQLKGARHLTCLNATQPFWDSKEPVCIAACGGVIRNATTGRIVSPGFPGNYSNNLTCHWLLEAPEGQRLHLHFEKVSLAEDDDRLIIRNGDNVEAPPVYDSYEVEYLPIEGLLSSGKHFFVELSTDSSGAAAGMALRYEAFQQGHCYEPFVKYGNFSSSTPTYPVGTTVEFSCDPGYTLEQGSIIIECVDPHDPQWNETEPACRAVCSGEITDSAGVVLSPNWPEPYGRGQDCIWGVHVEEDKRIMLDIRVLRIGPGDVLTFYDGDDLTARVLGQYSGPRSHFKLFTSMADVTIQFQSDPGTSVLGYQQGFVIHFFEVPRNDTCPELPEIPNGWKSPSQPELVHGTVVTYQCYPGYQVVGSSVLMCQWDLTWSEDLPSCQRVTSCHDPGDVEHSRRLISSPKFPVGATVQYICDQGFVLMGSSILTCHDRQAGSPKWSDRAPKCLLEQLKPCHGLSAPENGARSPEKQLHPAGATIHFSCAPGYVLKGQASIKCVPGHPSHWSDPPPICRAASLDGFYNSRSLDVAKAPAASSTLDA

Row | Molecule | percent viable cells, LU64 (LU64, a SCLC tumor) | percent viable cells, OV26 [1] | cross reactivity to rat SEZ6 (rat SEZ6) | number of tumor cells, LU100 (LU100, a SCLC tumor) | further results
1 | SC17.28-ADC2: SC17.28 antibody conjugated to PBD dimer cytotoxic agent (and linker) ADC2 (conjugate) VL: DILLTQSPAILSVSPGEGVSFSCRASQSIGTSIHWYQQRTNGSPRLLIKYASESISGIPSRFSGSGSGTDFTLRINSLESEDIADYYCQQSNSWPLTFGAGTKLELK VH: QVHLPQSRPELVKPGASVKISCKASGYGFTRSYIHWVKQRPGQGLEWIGYISSGSGGTTYNQKFKGKASLTADNPSSTAYMHLSSLTSEDSAIYFCARGGVRYFDVWGAGTTVTVSS | increased reduction in percent viable cells | increased reduction in percent viable cells |  |  | 
2 | SC17.34: murine anti-SEZ6 antibody (antibody, V domains shown, Murine SC17.34 VH; Murine SC17.34 VL, murine anti-SEZ6 antibody) VH: EVQLQQSGPELVKPGSSVKISCKASGYTFTDYNMDWVKQSHGKRLEWIGYIYPDNGGAGYNQKFKGKATLTVDKSSSTAYMELRSLTSEDSAVYYCSRSITTAWFAYWGQGTLVTVSA VL: DIKMTQSPSSMYASLGERVTITCKASQDINSYLSWFQQKPGKSPKTLIYRANRLVDGVPSRFSGSGSGQDYSLTISSLEYEDMGIYYCLQYDEFPPTFGGGTKLEIK |  |  | cross reactive | reduction of tumor cells | cross reactivity to cynomolgus SEZ6 (cynomolgus SEZ6): cross reactive; Discontinuous (SEZ6 ECD): Yes
3 | SC17.34-ADC2: SC17.34 antibody conjugated to PBD dimer cytotoxic agent (and linker) ADC2 (conjugate) VL: DIKMTQSPSSMYASLGERVTITCKASQDINSYLSWFQQKPGKSPKTLIYRANRLVDGVPSRFSGSGSGQDYSLTISSLEYEDMGIYYCLQYDEFPPTFGGGTKLEIK VH: EVQLQQSGPELVKPGSSVKISCKASGYTFTDYNMDWVKQSHGKRLEWIGYIYPDNGGAGYNQKFKGKATLTVDKSSSTAYMELRSLTSEDSAVYYCSRSITTAWFAYWGQGTLVTVSA | increased reduction in percent viable cells | increased reduction in percent viable cells |  |  | 
4 | SC17.24-ADC2: SC17.24 antibody conjugated to PBD dimer cytotoxic agent (and linker) ADC2 (conjugate) VL: DIVMSQSPSSLAVSVGEKVTMSCKSSQSLLYSSNQKSYLAWYQQKPGQSPKLLIYWASTRESGVPDRFTGSGSGTDFTLTISSVQAEDLAVYYCKQSYNLRTFGGGTKLEIK VH: QVQLQQSDAELVKPGASVKISCKVSGYTFTDHTIHWMKQRPEQGLEWIGYIYPRDGSTKYNEEFKGKATLTADKSSSTAYMQLNSLTSEDSAVYFCARSYSNYFDYWGQGTTLTVSS | increased reduction in percent viable cells | increased reduction in percent viable cells |  |  | 
5 | SC17.19: murine anti-SEZ6 antibody (antibody, V domains shown, Murine SC17.19 VH; Murine SC17.19 VL, murine anti-SEZ6 antibody) VH: DVQLQESGPGLVKPSQSLSVTCTVTGYSITSSYTWNWIRQFPGNKLEWMGYIHYSGSTNYNPSLRSRISITRDTSKNQFFLQLNSVTTEDTATYYCARSRYYYDAYGFAYWGQGTLVTVSA VL: DIVLTQSPASLAVSLGQRAAISCKPSQSVDYDGDSYMNWYQQKPGQPPKLLIYAASNLESGIPARFSGSGSGTDFTLNIHPVEEEDAATYYCHQINDDPWTFGGGTKLK |  |  | cross reactive | reduction of tumor cells | cross reactivity to murine SEZ6 (mouse SEZ6): cross reactive; cross reactivity with SEZ6L2 (SEZ6L2; ELISA, antibody 1 μg/mL): cross-reactive; binds SEZ6 family member SEZ6L2 (dagger) (SEZ6L2; mark in Table 5): SC17.SC17, SC17.19^†, SC17.93, SC17.102, SC17.121,
